From patent publication US8889709B2, “Use of isoQC inhibitors in the treatment and prevention of inflammatory diseases or conditions” (Probiodrug AG, priority 2006, dated 2014)

Tests used:
Test in all cases: Kinetic parameters of conversion of peptide substrates by murine isoQC
Format in all cases: biochemical, mouse
Settings in all cases: pH 8.0; 30.0 °C
[1] = substrate: C[C@H](NC(=O)[C@H](Cc1ccc(O)cc1)NC(=O)[C@@H](N)CCC(N)=O)C(=O)O
[2] = substrate: NC(=O)CC[C@H](N)C(=O)N[C@@H](CCC(=O)O)C(=O)O
[3] = substrate: NC(=O)CC[C@H](N)C(=O)NCC(=O)N1CCC[C@H]1C(=O)O

B1: mouse-isoQC (Mus musculus; I74N) (protein)
chain: EEMSRSRDLRVPLNGSLSEAKLRLVVGQLDPQRLWGTFLRPLLIVRPPGSSGNLQVRKFLEATLQSLSAGWHVELDPFTASTPLGPLDFGNVVATLDPGAARHLTLACHYDSKFFPPGLPPFVGATDSAVPCALLLELVQALDAMLSRIKQQAAPVTLQLLFLDGEEALKEWGPKDSLYGSRHLAQIMESIPHSPGPTRIQAIELFVLLDLLGASSPIFFSHFPRTARWFQRLRSIEKRLHRLNLLQSHPQEVMYFQPGEPPGPVEDDHIPFLRRGVPVLHLIATPFPAVWHTPADTEANLHPPTVHNLSRILAVFLAEYLGL
notes: starting with codon 43 (Glu 43) of the open reading frame (counting from methionine II); yeast alpha-factor secretion signal (N); made in house; host or cells: Pichia pastoris X-33
- Km [1]: 58 ± 4 µM
- kcat [1]: 22.9 ± 0.86 s⁻¹
- kcat/Km [1]: 394230 ± 21360 M⁻¹ s⁻¹
- Km [2]: 470 ± 40 µM
- kcat [2]: 7.79 ± 0.44 s⁻¹
- kcat/Km [2]: 16880 ± 2320 M⁻¹ s⁻¹
- Km [3]: 102 ± 6 µM
- kcat [3]: 11.4 ± 0.4 s⁻¹
- kcat/Km [3]: 111440 ± 6810 M⁻¹ s⁻¹
